B1: DARPin® protein #1, monovalent CD33 specific binding protein (designed binder)
chain: MRGSHHHHHHGSDLGWKLLLAASRGQDDEVRILLAAGADVNAKDIDEGYTPLHIAAYYGHLEIVEVLLKAGADVNAKDRYGKTPLHLAAISGHEDIAEVLLKAGADVNAQDDKGDTPADLAADYGHEDIAEVLQKAA
notes: Crude extract in the HTRF; also called DARPin® protein #91 [sic]
B2: DARPin® protein #14, monovalent CD33 specific binding protein (designed binder)
chain: MRGSHHHHHHGSDLGWKLLNAAIAGQDDEVRILLAAGADVNAKDTEYGWTPLHIAASDGHLEIVEVLLKAGADVNAKDYAGSTPLHAAAFVGHLEIVEVLLKAGADVNAQDHQGQTPADLAAQQGHVDIAEVLQKAA
notes: Crude extract in the HTRF
B3: DARPin® protein #9 in TCE format (formatted with a CD3-specific ankyrin repeat domain) (designed binder)
chain: MRGSHHHHHHGSDLGYKLLWAASAGQDDEVRILLAAGADVNAKDKDGATPLHFAAAKGHLEIVEVLLKAGADVNAKDNRGATPLHYVAAASGHLEIVEVLLKAGADVNAQDEWGNTPADLAAIYGHGDIAEVLQKAA
notes: Crude extract HTRF construct also carried a C-terminal Flag tag; not shown: which one,
B4: DARPin® protein #8 in TCE format (formatted with a CD3-specific ankyrin repeat domain) (designed binder)
chain: MRGSHHHHHHGSDLGWKLLSAATLGQDDEVRILLAAGADVNAKDEWGKTPLHWAASTGHLEIVEVLLKAGADVNAKDLWGHTPLHEAAAKGHLEIVEVLLKAGADGNAQDNIGDTPADLAAYQGHEDIAEVLQKAA
notes: as for B3
B5: DARPin® protein #1 in TCE format (formatted with a CD3-specific ankyrin repeat domain) (designed binder)
chain: B1 chain
notes: not shown: which one,
B6: DARPin® protein #14 in TCE format (formatted with a CD3-specific ankyrin repeat domain) (designed binder)
chain: B2 chain
notes: as for B3
B7: DARPin® protein #16 in TCE format (formatted with a CD3-specific ankyrin repeat domain) (designed binder)
chain: MRGSHHHHHHGSDLGKKLLQAARAGQLDEVRELLKAGADVNAKDHQGETPLHLAASQGHLEIVEVLLKAGADVNAKDLAGYTPLHLAAWTGHLEIVEVLLKAGADVNAKDQWGRTPLHIAAASGHLEIVEVLLKAGADVNAQDKSGKTPADLAARAGHQDIAEVLQKAA
notes: as for B3
B8: DARPin® protein #15 in TCE format (formatted with a CD3-specific ankyrin repeat domain) (designed binder)
chain: MRGSHHHHHHGSDLGKKLLQAARAGQLDEVRELLKAGADVNAKDLIGWTPLHLAAHYGHLEIVEVLLKAGADVNAKDAQGWTPLHIAAWEGHLEIVEVLLKAGADVNAKDWTGETPLHLAAFEGHLEIVEVLLKAGADVNAQDKSGKTPADLAARAGHQDIAEVLQKAA
notes: as for B3
B9: DARPin® protein #5 in TCE format (formatted with a CD3-specific ankyrin repeat domain) (designed binder)
chain: B8 chain with G15S, L45Q, W48Q, H56Q, Y57S, A78T, Q79E, I86V, F122Y, E123Q
notes: as for B3
B10: DARPin® protein #3 in TCE format (formatted with a CD3-specific ankyrin repeat domain) (designed binder)
chain: MRGSHHHHHHGSDLGVKLLRAAFHGQDDEVRILLAAGADVNAKDTDGETPLHYAAQFGHLEIVEVLLKAGADVNAKDAYGATPLHWAAWHGHLEIVEVLLKAGADVNAQDVSGATPADLAAKVGHEDIAEVLQKAA
notes: as for B3
B11: DARPin® protein #7 in TCE format (formatted with a CD3-specific ankyrin repeat domain) (designed binder)
chain: MRGSHHHHHHGSDLGLKLLRAAYDGQDDEVRILLAAGADVNAKDWQGFTPLHYAAVLGHLEIVEVLLKAGADVNAKDQEGATPLHLAALHGHLEIVEVLLKAGADVNAQDESGWTPADLAAKWGHEDIAEVLQKAA
notes: as for B3

Results on eleven molecules are retold here after patent US20240317852A1 (Molecular Partners, published 2024).

Changes are numbered by the printed parent chain.

As a reminder, the Kd is the constant that tells how readily two partners part at equilibrium. Low readings indicate tighter binding, high ones weaker binding.

The target in the first assay is T1, biotinylated splice variant of the extracellular domain of human CD33 (residues 140-259, constant domain … (human, UniProt P20138 140-259, biotinylated with BirA-GST (Avi tag))).
T1 construct: Bought from Evitria; a second Fc chain may be present, not described; also called splice variant CD33; spliced variant; not shown: C-terminal Fc tag and Avi tag
T1 chain: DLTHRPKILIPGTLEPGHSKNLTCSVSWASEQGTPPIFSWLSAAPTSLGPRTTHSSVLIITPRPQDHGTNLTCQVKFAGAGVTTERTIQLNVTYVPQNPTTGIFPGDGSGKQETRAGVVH
Kind of assay: HTRF, 6 nM biotinylated hCD33-C2-Fc(kih)-Avi, Strep-Tb and anti-6His-d2. The method, then: First, a binding experiment has been performed against full-length (V/C2 domains) and truncated CD33 (C2 domain) by HTRF, using crude extracts of the three CD33-specific binding proteins DARPin® protein #1. DARPin® protein #9 and DARPin® protein #14. Binding to the CD33 target was detected using Strep-Tb and anti-His-D2 HTRF reagents. In brief, crude extract of DARPi® protein #1, DARPin® protein #9 and DARPin® protein #14 was diluted 1:250 (final 1:1000) with PBSTB and added into a 384-well plate (PerkinElmer, 6008280). Then, the biotinylated target_hCD33-Fc(kih)-Avi (full-length CD33; purchased from Evitria) and hCD33-C2-Fc(kih)-Avi (truncated CD33; purchased from Evitria) respectively was diluted to 8 nM (final 6 nM) and mixed with the HTRF reagents Mab Anti-6His-d2 and Strep-Tb, both 1:200 diluted (final 1:400). As depicted in FIG. 5, all three CD33 specific binding proteins DARPin® protein #1. DARPin® protein #9 and DARPin® protein #14 show binding to the full-length CD33 but only DARPin® protein #9 binds to the truncated CD33 target.
On to B1, for which the binding result is “no binding”. Turning to B2, the binding result is “no binding”.

A further assay deals with T1, biotinylated splice variant of the …. Kind of assay: SPR (ProteOn XPR36), biotinylated splice variant CD33 on NLC chip, DARPin at 50 nM, single trace.
Consider B3, for which the dissociation constant (Kd) amounted to 1.9 nM.

The next assay shares this target. Briefly: SPR (ProteOn XPR36), biotinylated splice variant CD33 on NLC chip.
As for B4, the binding result is reported as “no binding (tested: 50 nM)”. Still for that read-out and setting: for B5 the value was “no binding (tested: 50 nM)”.

Consider B6, for which the binding result is listed as “no binding (tested: 50 nM)”.

As for B7, the binding result is on record as “no binding (tested: 50 nM)”.

In the case of B8, the binding result was “no binding (tested: 50 nM)”. Consider B9, for which the binding result is given as “no binding (tested: 50 nM)”.

As to B10, the binding result was “no binding (tested: 50 nM)”. Same read-out and setting: for B11 the value was “no binding (tested: 50 nM)”.
